Assay results published in a protein production outcome set (Wang et al. 2014).

assay: label from the status in PepcDB records

Sequence | protein production
MMALQEEKGKPVHCERHHESSSVDTEPGLEESKEVIKWKRLPGQACRIPNKHLFSLNAGERGCFCLDFSHNGRILAAACASRDGYPIILYEIPSGRFMRELCGHLNIIYDLSWSKDDHYILTSSSDGTARIWKNEINNTNTFRVLPHPSFVYTAKFHPAVRELVVTGCYDSMIRIWKVEMREDSAILVRQFDVHKSFINSLCFDTEGHHMYSGDCTGVIVVWNTYVKINDLEHSVHHWTINKEIKETEFKGIPISYLEIHPNGKRLLIHTKDSTLRIMDLRILVARKFVGAANYREKIHSTLTPCGTFLFAGSEDGIVYVWNPETGEQVAMYSDLPFKSPIRDISYHPFENMVAFCAFGQNEPILLYIYDFHVAQQEAEMFKRYNGTFPLPGIHQSQDALCTCPKLPHQGSFQIDEFVHTESSSTKMQLVKQRLETVTEVIRSCAAKVNKNLSFTSPPAVSSQQSKLKQSNMLTAQEILHQFGFTQTGIISIERKPCNHQVDTAPTVVALYDYTANRSDELTIHRGDIIRVFFKDNEDWWYGSIGKGQEGYFPANHVASETLYQELPPEIKERSPPLSPEEKTKIEKSPAPQKVK | failed
MMASYLSTPSVSYSMKSYDPVKVLYTVIISLVSLYTLYITSAFFYVLILSALFAYIIHPVYFFCIRFVKSKQICALIPLGTIFLITLASGVMIVKALMNEISRILEIPNTINGFANMDLRRIVGLFEPLIQTHPGKLTESIGAYLNSLVTDYVPQIQNNIFQISTGLSILIIELIVIVVLTYYLLVESETIATELPNLFPDRKVGVVFLGELNYIYQNLFIVYFLTCLITGIIGGVLYWALGVPYSLIWGILTFIMALLPVVGAGTVYGLLALYYVLIDDFFTAGALIFLGIVFLSIIPDFIMRPRFARNRAAIHPAITLVAFAAPVFVLGPIGIIIGPLTYGFLLAAFRTRKILGTSSAQTESSAAGSPEDLVGSQREKSDESPVGRSVERPVKASGERSRSGN | failed
MMCGGRGTRLDAAAEKPLFEVGGRAMVDHVRAALEAAGRIDTTHAAVSPHAPDTAAHLAATPLSLIETPGDGYVADLTAALDAVGTPVLTVAADLPLLAPAVVDTVVAAADGATTSACVPRALKHELGVSTDADADAWVPTGVNVVGGGDTEATHRSFDARLAVNVNHRSDAAVAARLLAATDRRNHPRLEHHHHHH | failed
MMDLHTHTVYSDGIGLIRDNVAWAEKRGLKIVGISDHIHFFTPSRFSAYINEINVIKEESEIVVLAGIEANILENGPDITDEFRKKLDYAIASVHEWFGRNGTHEYINYVKKAIMDDNVDIIGHFGNSFPWIGYPTREEIDEILDLAEAYGKAFEISARYKVPDLEFIRECVKRGIKLSLATDAHRPEDVGKVSWSLKMLEKAGGTKEDLIFSEYL | failed
MMDSIAGPIQVLSRQFPNAQQGKGAALNHAFQIVLTDAEKGHYSWDQVLVGVVDADGFFSENIVNELTAVFTDTTVCAAQTRIKMKDVTNFMFIAQDVEFFTINNFIQKARRATKTIGLGGNGQFFRLSMITEHLGYQPWGNALLDDYELTIKLMLKELSIAYIDEAFMAQEALRDVKRFIRQRSRWVQGNLDCLAYLPRVIKSKSLTLRQKCGIYYFLAQPFINLVAGMLVFVLTGLQLQHLYRLGFSLSLVISFVLAVSISLVFGIFFTINYYRELKNFQLKVPAKLGLIILPFTISYMYLILFVSVVMAYYRFIKGNSTWIKTERN | failed
MMEDDGQPRTLYVGNLSRDVTEVLILQLFSQIGPCKSCKMITEHTSNDPYCFVEFYEHRDAAAALAAMNGRKILGKEVKVNWATTPSSQK | not failed
MMEERAAAAVASAASSCRPLGSGTAPNPTAAAPASSPAPGPGPVGKGGGGGGSPGPTAGPEPLSLPGILHFIQHEWARFEAEKARWEAERAELQAQVAFLQGERKGQENLKTDLVRRIKMLEYALKQERAKYHKLKFGTDLNQGEKKTDLSEQVSNGPVESVTLENSPLVWKEGRQLLRQYLEEVGYTDTILDMRSKRVRSLLGRSLELNGAGEPVEGAPRASPGPGGLSGGESLLVKQIEEQIKRNAAGKDGKERLGGSVLEQIPFLQNCEDEDSDEDDELDSVQHKKQRVRLPSKALVPEMEDEDEEDDSEDAINEFDFLGSGEDGEGSPDPRRCTSEGNPHELESRRVKLQGILADLRDVDGLPPKVTVPPPGTPQPRPHEGSFGFSSDVFIMDTIGGGEVSLGDLADLTVTNDNDLSCDLSDSKDAFKKTWNPKFTLRSHYDGIRSLAFHHSQSALLTASEDGTLKLWNLQKAVTAKKNAALDVEPIHAFRAHRGPVLAVTMGSNSEYCYSGGADARIHSWKIPDLNMDPYDGYDPSVLSHVLEGHGDAVWGLAFSPTSQRLASCSADGTVRIWDPSSSGPSCLCTFPMDGEHGIPTSVAFTSTEPAHVVASFRSGDTVLYDLEAGSALLTLESRGSSGPAQINQVVSHPSQPLTITAHDDRGIRFLDNRTGKSVHSMVAHLDAVTCLAVDPNGVFLMSGSHDCSLRLWSLDNKTCVQEITAHRKKHEEAIHAVACHPSKALIASAGADALAKVFV | failed
MMEKIMEYLQLSDEVVDDGEAPRVEEFLGEGKSFYENFSLRGIRVNRVEPGFISCSFKVPLRLTDRDKNLANGAIANLVDEVGGALVHGEGLPMSVSVDMSIAFLSKAKLGEELEITSRLLGERGGYKGTIVVVRNKMTGEIIAEGRHSMFGRQASKL | failed
MMELDLPATIKRDMKFRYLLIIVPLLFPAHIFGQELPDLGDVSQASVTPHQERQIGIQIMREIRADSSYLDDPEIADYLTRLGNRLIAASGQTNPDNPFEFFAINDSSINAFALPGAFVGFHSGLITAAQNESELAGVMAHEIAHVTQKHLARMISGTSYLGLLGSIAALAIAILASRSNPNAGQAVLATAQASAIQSQLNFTRKHEKEADRVGFNMLIKAGFDPHGMSSFFERMQHASRYYENGMPSYLMTHPVTHERIADIQNRTQELGYRQVPDSLEFHLVRAKIRASRGNPASVINEFKARLQDKRYINEIAEQYGLIQALLRARQFKQADEELNTLYRTIQSDSSAQSLKNHRLGKSIQVDGDYLQSAAMIETLAARVKFASGQTDDAFRLYQSALQSFPHYRALVYGYADALLQHKDAQAALDFINGQSQFIHDDIRLYRLTAQCHAALGNALLQHQAEAEALIREGNLRAAIEQLQIALRHKHDNFYQLSSVEARLRQIKEFVAAEKEKK | failed
MMELHDLAEDLPSKWTEIMAVAEKAFRAFAELDAVKRELAESENAQ | not failed
MMEVGILPVHVLYVFFIGAIILFMLLRKDTTFISLFGIFIISLWASHSLSASVSSLFHSFIYAAGELLPTIFIICFIVSMSDLLTKTGINEAMISPFASLVRGPVTAYWLIGGLMFAISLFFWPSPGVALIGAVLLPAAARAGLTPLAAAMAMNLFGHGFALSGDFVIQAAPKLTADAAGIPVGDVVSASIPLVLIMGVTTTTAAFIMIQRERKKQEHPTSFSPVLSGEQDNSLYLPKRLRSILAFLIPLAFLADIACMLLFNLQGNDATALIGGSAICILFTVHFFVYKHKGLEKITGYFIDGFKFGFKVFGPVIPIAAFFYLGDSGYESILGTSLPKGSHGIVNDLGIALSHMMPMSKELAATALTAAGAITGLDGSGFSGISLAGSIAKLFSSALHADPAILTALGQISAIWVGGGTLVPWALIPAAAICKVDPFELARKNFIPVAIGLLVTTLAAVMML | failed
MMFFQVHPHLTDLVIRTLQATWQQFPWLGQEDIALTLLVYPPPIPVNTGGALTAAEFWQYLIPGAHYRGDVPMYPASVVKLFYLVACHEWLHSGMLQPDAELERAMRDMIVDSSNDATSLVVDMLTGTTSGPVLPPEPFRTWQYQRNIVNRYFQSLGWPELTQINVNQKTWCEGPYGREQEFVGRDRQNANRLTTNATAKLIHSIVGGVAVSASASQGMMELMERSLDPELLAQDPENQVQGFLGEGLPPGAKLWSKAGLTSWVRHDAAYIELPDRCPYTLVVFMENSTASKNTEVLPFISRQIASGIPTLEGAGVL | failed
MMGSVELNLRETELCLGLPGGDTVAPVTGNKRGFSETVDLKLNLNNEPANKEGSTTHDVVTFDSKEKSACPKDPAKPPAKAQVVGWPPVRSYRKNVMVSCQKSSGGPEAAAFVKVSMDGAPYLRKIDLRMYKSYDELSNALSNMFSSFTMGKHGGEEGMIDFMNERKLMDLVNSWDYVPSYEDKDGDWMLVGDVPWPMFVDTCKRLRLMKGSDAIGLAPRAMEKCKSRA | failed
MMHHALHIKNGIVIDPKNGVKAEKMDIFVKNGKIVEESEVKGEDVKVIDANNKLVVAGGVDMHAHIAGSKINTGRTMRPEEMRVVRNIAGKFRAAVGRVLEHHHHHH | not failed
MMHSTVQHGGNKSGKSNVWANTNLAKTVAAVDEFKFGFPSGGLTTVSNKWWGRAEKGGREDGGGENTENGHVAACDETQNSLVAIRKRIAEEGREAVELGLHQGFGSKRPGKRDQALLFQIFNSAMPKDWVTPDSS | failed
MMIDPELRPAFLPAGKLRAAINLGNPILAGTDAAGQAVGVSVDLAREFARRLNAGIELRVFDTAGQSVDAVTREEADIGFFAIDPARGAGIAFTGPYVLIEGAYLVRDDSPLQANEDVDRAGKRVTVGKGSAYDLHLTRALQHAEIVRAASSQAVVDTFLARRLDVAAGVKQQLQADARRVGGVRLLPGRFMVIRQAMGLPKARGDAAAACLDAFVESMKGNGFVAQALARHGIQGASVAPPGRDG | failed
MMIDPELRPAFLPAGKLRAAINLGNPILAGTDAAGQAVGVSVDLAREFARRLNAGIELRVFDTAGQSVDAVTREEADIGFFAIDPARGAGIAFTGPYVLIEGAYLVRDDSPLQANEDVDRAGKRVTVGKGSAYDLHLTRALQHAEIVRAASSQAVVDTFLARRLDVAAGVKQQLQADARRVGGVRLLPGRFMVIRQAMGLPKARGDAAAACLDAFVESMKGNGFVAQALARHGLEHHHHHH | failed
MMIIGINGSPRKNGNTIEMLKSALDGAKAQGAETELINLYDYNYKGCVSCFSCKLKGGRSYGKCALKDDLKPILEKIEKADAFILASPIYFGMVTGEMRSFMERLLFQYLVYDKDHSSLFNRKIKTGFIYTMNVPETYLDSVGYNKLFESNEATLKRIFGASEYILSTDTYQFDDYSKYEASMFDVEAKKKRREEVFPEDCKRAYEMGASFVKLEHHHHHH | failed
MMINMNRKITTYQWWIATLAIVSIFLIILDFAAVIDINIPTSKWFWINDGIVVYFAINYFYHLSKSNDKKTFFKNHIYDLLIIIPIGMLFVVLNAFNLSSLVSYLRLLRLIRLAGLMGKLRQIFHTNGLWYVVFFTITFLLVGAEAFAISEHVSLDTAFWWVLSTASTVGYDGIFGKTIPPHSIVGKFVTLVMMLLGIGIVGMLTSSITSYLVRRTNGANTLETHDNIELILKKLDDIEQQNKELTYQNKKLQAEIQTLKGEKNPLMSYIR | failed
MMISDLPEDMVEEILSRVSIISLGALRWNDLSKARVICKAEARQQFAGFMIKGSKEVSNTRLVVWNPYLGKIWSIQHRSAYHSENRYTLGYDNNRKPQNLEEQLAVLLHNWGAFAMEIWVTTNIEPNAKKHAVIFDSSLSCGSVACIIGETGNLRTVDLGVAAVPYRQLPVCSYAPSLEQINQGQELPLIGLTQIFMEQHKYWVSTFLDNLITKYG | failed
MMIVYKGEKMQFIRVNTLKINPEVLKKRLENKGVVLEKTFLDYAFEVKKSPFSIGSTPEYLFGYYMPQSISSMIPPIVLNPREDDFILDMCAAPGGKTTHLAQLMKNKGTIVAVEISKTRTKALKSNINRMGVLNTIIINADMRKYKDYLLKNEIFFDKILLDAPCSGNIIKDKNRNVSEEDIKYCSLRQKELIDIGIDLLKKDGELVYSTCSMEVEENEEVIKYILQKRNDVELIIIKANEFKGINIKEGYIKGTLRVFPPNEPFFIAKLRKI | not failed
